Experimental data published in paper PMC6044281, “Cooperative Domain Formation by Homologous Motifs in HOIL-1L and SHARPIN Plays A Crucial Role in LUBAC Stabilization” (Cell reports, 2018).
Substitutions are numbered along the chain they refer to. Names may count otherwise.

B1: mSHARPIN_(163–301) (domain or fragment, mouse, UniProt Q91WA6 163-301, looked up)
chain: SSGNFKKEELATRLSQAIAGGDEKAAAQVAAVLAQHHVALNVQLMEAWFPPGPIRLQVTVEDATSVLSSSSSAHVSLKIHPHCSIAALQDQVFSEFGFPPAVQRWVIGRCLCMPERSLASYGVSQDGDPAFLYLLSAPR
notes: No tag is named for these experiments; it may be the same MBP fusion as m12; also called SHARPIN LTM-UBL
B2: GST-mHOIP D-UBA (aa 466–630) UBA2^mut (domain or fragment, mouse, UniProt Q924T7 466-630, looked up)
chain: SCGDPEKQRQDKMRKEGLQLVSMIQEGETAGASPEEVFSALQYSGTEVPLQWLRSELSYVLEMVAELAGQQDPELGAFSCQEARKAWLDRHGNLDEAVEECVRARRRKVHELQSLGFGPKEGSLQALFQHGGDVARALTELARQRAEPAHQRLWDRDPEPTPCWD
notes: also called UBA2^mut [Q607A/L611A/F614A]; not shown: GST, N-terminal, kept
B3: MBP-mSHARPIN UBL_(163–301) (domain or fragment, mouse, UniProt Q91WA6 163-301, looked up)
chain: B1 chain
notes: not shown: MBP, N-terminal, kept
B4: mHOIP_(474–630) (domain or fragment, mouse, UniProt Q924T7 474-630, looked up)
chain: RQDKMRKEGLQLVSMIQEGETAGASPEEVFSALQYSGTEVPLQWLRSELSYVLEMVAELAGQQDPELGAFSCQEARKAWLDRHGNLDEAVEECVRARRRKVHELQSLGFGPKEGSLQALFQHGGDVARALTELQRQRLEPFHQRLWDRDPEPTPCWD
notes: also called double-UBA (D-UBA) domain
B5: mHOIL-1L_(1–140) (domain or fragment, mouse, UniProt Q9WUB0 1-140, looked up)
chain: MDEKTKKAEEMALSLARAVAGGDEQAAIKYATWLAEQRVPLRVQVKPEVSPTQDIRLCVSVEDAYMHTVTIWLTVRPDMTVASLKDMVFLDYGFPPSLQQWVVGQRLARDQETLHSHGIRRNGDGAYLYLLSARNTSLNP
notes: mouse HOIL-1L, LTM and UBL, aa 1-140; Used as SPR analyte and in the crystal; also called HOIL-1L LTM-UBL (aa 1–140); mHOIL-1L containing UBL (aa 1–140)
B6: mSHARPIN_(163–341) (domain or fragment, mouse, UniProt Q91WA6 163-341, looked up)
chain: SSGNFKKEELATRLSQAIAGGDEKAAAQVAAVLAQHHVALNVQLMEAWFPPGPIRLQVTVEDATSVLSSSSSAHVSLKIHPHCSIAALQDQVFSEFGFPPAVQRWVIGRCLCMPERSLASYGVSQDGDPAFLYLLSAPREVSGQSLQNSKMDRKLGLFPQSLGLPHDLQPSSSSLPSPS
B7: GST-mHOIP_(466–630) (domain or fragment, mouse, UniProt Q924T7 466-630, looked up)
chain: B2 chain with A142Q, A146L, A149F
notes: Captured on the SPR chip via an anti-GST antibody; also called mHOIP fragment containing the UBA domains; not shown: GST, N-terminal, kept
B8: GST-mHOIP D-UBA (aa 466–630) UBA1^mut (domain or fragment, mouse, UniProt Q924T7 466-630, looked up)
chain: B2 chain with R9A, L18A, V21A, A142Q, A146L, A149F
notes: also called UBA1^mut [R474A/L483A/V486A]; not shown: GST, N-terminal, kept

Tests used:
GST-mHOIP_(466–630) [1] = biological target: B7; test: SPR; conditions: response read at end of injection (about 185 s); GST-mHOIP D-UBA WT immobilized with anti-GST antibody; parent: est. 270; read off a plot
GST-mHOIP_(466–630) [2] = biological target: B7; test: SPR; GST-mHOIP D-UBA (aa 466–630; WT or mutant) immobilised on the sensor chip via an anti-GST antibody; one UBL-containing fragment alone as analyte; conditions: both partners purified
[3] = biological target: T1, mHOIL-1L_(1–140) and mSHARPIN_(163–301) applied together (mouse, UniProt Q9WUB0 1-140; Q91WA6 163-301); test: SPR; GST-mHOIP D-UBA (aa 466–630; WT or mutant) immobilised via an anti-GST antibody; HOIL-1L and SHARPIN fragments applied together as analytes (500 mg/ml each as printed); stability judged by dissociation; conditions: both partners purified
T1 construct: mouse HOIL-1L aa 1-140, as m2; The two fragments were mixed and applied together as one SPR analyte; they heterodimerise through their LTMs; also called the two UBL-containing proteins applied simultaneously; both proteins together
T1 sequence (looked up) 1: B5 chain
T1 sequence (looked up) 2: B1 chain

mHOIL-1L_(1–189)-strep = biological target: T2, mHOIL-1L_(1–189)-strep (mouse, UniProt Q9WUB0 1-189); test: SPR; mHOIL-1L_(1–189)-strep immobilised on the sensor chip with anti-strep antibody; MBP-mSHARPIN fragments as analytes; conditions: both partners purified
T2 construct: mouse HOIL-1L LTM-UBL, aa 1-189; Captured on the SPR chip with an anti-strep antibody; also called HOIL-1L_(1–189) (LTM-UBL); not shown: strep, C-terminal, kept
T2 sequence (looked up): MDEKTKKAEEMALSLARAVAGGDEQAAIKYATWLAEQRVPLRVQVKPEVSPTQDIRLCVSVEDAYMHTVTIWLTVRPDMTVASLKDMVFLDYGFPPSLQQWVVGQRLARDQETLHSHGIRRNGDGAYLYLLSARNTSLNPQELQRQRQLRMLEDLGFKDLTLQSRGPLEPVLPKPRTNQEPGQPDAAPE

mSHARPIN_(163–341) = biological target: B6; test: crystal structure; LUBAC ternary complex core; sitting-drop vapor diffusion at 20°C, 1.8 M magnesium sulfate, 0.1 M MES pH 6.5; 2.4 Å; conditions: both partners purified
mHOIP_(474–630) = biological target: B4; test: SEC; analytical size-exclusion chromatography of the LUBAC core subunits; conditions: both partners purified
mHOIL-1L_(1–140) = biological target: B5; test: as above; conditions: both partners purified

Q: “mHOIL-1L_(1–140) and mSHARPIN_(163–301) applied together (from UniProt Q9WUB0;Q91WA6) mHOIL-1L: L15A; V19A” was tested. Which response (GST-mHOIP_(466–630) [1]) did it give?
A: 90 RU

Q: For “mHOIL-1L_(1–140) and mSHARPIN_(163–301) applied together (from UniProt Q9WUB0;Q91WA6) mSHARPIN: L176A; I180A”, which response (GST-mHOIP_(466–630) [1]) is on record?
A: 70 RU

Q: B1 was tested. Which Kd (GST-mHOIP_(466–630) [2]) did it give?
A: 16 µM

Q: Does B2 bind [3]?
A: binds

Q: Which Kd (mHOIL-1L_(1–189)-strep) does the source give for B3 here?
A: 2.04 µM

Q: What about the koff (mHOIL-1L_(1–189)-strep) of the same molecule?
A: 0.00361 s⁻¹

Q: Does B4 bind (mSHARPIN_(163–341))?
A: binds

Q: For B5, which “stoichiometry N” value (mHOIP_(474–630)) is on record?
A: 1

Q: Does B5 bind (mSHARPIN_(163–341))?
A: binds

Q: What about the Kd (GST-mHOIP_(466–630) [2]) of the same molecule?
A: 1.34 µM

Q: For B6, which “stoichiometry N” value (mHOIL-1L_(1–140)) is on record?
A: 1

Q: And the “stoichiometry N” value (mHOIP_(474–630))?
A: 1

Q: For B7, which koff [3] is on record?
A: 0.000111 s⁻¹

Q: Does B8 bind [3]?
A: binds
